According to the supplement of paper PMC7125110:
± gives the standard error. Fewer inactive variants are shown than the library holds.

B1: glmS ribozyme (parent)
chain: AUAAAAGCGCCAGAACUACAGAAAUGUAGUUGACGAGGAGGAGGUUUAUCGAAUUUUCGGCGGAUGCCUCCAAA

Legend:
Conditions in all cases: with glucosamine-6-phosphate
glucosamine-6-phosphate [1] = variants of: B1; assay: self-cleavage kobs at 160 uM GlcN6P; higher = faster cleavage; RNA array
Summary of the method: (§1)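 Tiles bearing barcoded ribozyme variants, transcribed in situ by E. coli RNA polymerase on sequenced MiSeq chips, were imaged over ~14 h at 37 °C using a hybridised Cy3 probe. Glucosamine-6-phosphate was supplied at 40 μM to 10 mM in HEPES/KCl/Mg(OAc)2 buffer. kobs came from one- or two-exponential decay fits to normalised per-tile medians, and weighted Michaelis–Menten fits then provided kcat and KM.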

glucosamine-6-phosphate [2] = variants of: B1; assay: self-cleavage kobs at 640 uM GlcN6P; higher = faster cleavage; RNA array
Summary of the method: as §1

glucosamine-6-phosphate [3] = variants of: B1; assay: self-cleavage kobs at 2500 uM GlcN6P; higher = faster cleavage; RNA array
Summary of the method: as §1

glucosamine-6-phosphate [4] = variants of: B1; assay: self-cleavage kobs at 10000 uM GlcN6P; higher = faster cleavage; RNA array
Summary of the method: as §1

Variant	self-cleavage kobs at 160 uM GlcN6P (glucosamine-6-phosphate [1])	self-cleavage kobs at 640 uM GlcN6P (glucosamine-6-phosphate [2])	self-cleavage kobs at 2500 uM GlcN6P (glucosamine-6-phosphate [3])	self-cleavage kobs at 10000 uM GlcN6P (glucosamine-6-phosphate [4])
C16G A36U	< 1e-05 s⁻¹	< 1e-05 s⁻¹	< 1e-05 s⁻¹	
C16U U31A G43U A52U	< 1e-05 s⁻¹	< 1e-05 s⁻¹	< 1e-05 s⁻¹	
C16U A42U C67G	6.07e-05 ± 1.8e-05 s⁻¹	0.000203 ± 6.8e-05 s⁻¹	0.000631 ± 0.00021 s⁻¹	
U31G U49C C67U	< 1e-05 s⁻¹			
A15C C34A	< 1e-05 s⁻¹	< 1e-05 s⁻¹	< 1e-05 s⁻¹	< 1e-05 s⁻¹
A15U G43U U56A C68A	0.000115 ± 3.5e-05 s⁻¹		0.00532 ± 0.0014 s⁻¹	
G35U G41U G43A	< 1e-05 s⁻¹	< 1e-05 s⁻¹	< 1e-05 s⁻¹	
C16A G60C C67G	< 1e-05 s⁻¹		< 1e-05 s⁻¹	
G35A G43U C68U	< 1e-05 s⁻¹		< 1e-05 s⁻¹	
U31A C50G	0.000119 ± 2.4e-05 s⁻¹	0.000349 ± 0.00014 s⁻¹	0.000577 ± 0.00022 s⁻¹	
C34G G37A	< 1e-05 s⁻¹	< 1e-05 s⁻¹		
C34A G37U A48G	< 1e-05 s⁻¹			
G29A U31C C34U	< 1e-05 s⁻¹	< 1e-05 s⁻¹	< 1e-05 s⁻¹	
C34A U55A	< 1e-05 s⁻¹	< 1e-05 s⁻¹	< 1e-05 s⁻¹	
G29U G32U A64U	< 1e-05 s⁻¹			
G29C G43C C70G	< 1e-05 s⁻¹	< 1e-05 s⁻¹		
C16G G59C A64C	< 1e-05 s⁻¹			
U31C U45A C67A	0.000102 ± 3e-05 s⁻¹	0.000203 ± 4.8e-05 s⁻¹	0.000723 ± 0.00023 s⁻¹	
G32A G43A G63C	< 1e-05 s⁻¹		< 1e-05 s⁻¹	
A33G G35A A36C A64G	< 1e-05 s⁻¹			
A14U U30A A33U G51A	< 1e-05 s⁻¹			
A33U G37C U46C	< 1e-05 s⁻¹	< 1e-05 s⁻¹	< 1e-05 s⁻¹	
C34U G41C G66U	< 1e-05 s⁻¹	< 1e-05 s⁻¹	< 1e-05 s⁻¹	
A33C U57G	< 1e-05 s⁻¹			
C34U C70G	0.000827 ± 0.0004 s⁻¹			
G35C G40A A42U	< 1e-05 s⁻¹	< 1e-05 s⁻¹	< 1e-05 s⁻¹	
A33U G37A	< 1e-05 s⁻¹			

Variant	self-cleavage kobs at 160 uM GlcN6P (glucosamine-6-phosphate [1])	self-cleavage kobs at 640 uM GlcN6P (glucosamine-6-phosphate [2])	self-cleavage kobs at 2500 uM GlcN6P (glucosamine-6-phosphate [3])	self-cleavage kobs at 10000 uM GlcN6P (glucosamine-6-phosphate [4])
G35C U65C G66A	< 1e-05 s⁻¹	< 1e-05 s⁻¹	< 1e-05 s⁻¹	
A33U C50U C61A C68G C70U	0.000144 ± 4.4e-05 s⁻¹	0.000229 ± 6.4e-05 s⁻¹		
U30C U69A	5.29e-05 ± 1.5e-05 s⁻¹	0.000111 ± 3e-05 s⁻¹	5.71e-05 ± 1.2e-05 s⁻¹	2.76e-05 ± 6.9e-06 s⁻¹
C16A G37C G59C	< 1e-05 s⁻¹	< 1e-05 s⁻¹		
G29U G37C A42C U46A	< 1e-05 s⁻¹	< 1e-05 s⁻¹		
C16U G32A G51U	< 1e-05 s⁻¹			
U31G G44U G51U	< 1e-05 s⁻¹			
A33C C34G	< 1e-05 s⁻¹			
C16U G40C C50A C67G	< 1e-05 s⁻¹	< 1e-05 s⁻¹		
C16A G35U G37U U65G	< 1e-05 s⁻¹	< 1e-05 s⁻¹		
G35C U55A	< 1e-05 s⁻¹	< 1e-05 s⁻¹	< 1e-05 s⁻¹	
A33U G63C	< 1e-05 s⁻¹	< 1e-05 s⁻¹	< 1e-05 s⁻¹	< 1e-05 s⁻¹
G29A G63C C70G	7.77e-05 ± 3e-05 s⁻¹	0.000155 ± 4.1e-05 s⁻¹	7.4e-05 ± 2.1e-05 s⁻¹	
C34G U46A	< 1e-05 s⁻¹		< 1e-05 s⁻¹	< 1e-05 s⁻¹
A15G C58A C70U	0.000138 ± 2.8e-05 s⁻¹	8.95e-05 ± 1.1e-05 s⁻¹	0.000182 ± 4.8e-05 s⁻¹	0.000281 ± 5.3e-05 s⁻¹
G35C C70U	< 1e-05 s⁻¹	< 1e-05 s⁻¹		< 1e-05 s⁻¹
C16U G29C C67A	0.00011 ± 2.1e-05 s⁻¹	0.000258 ± 4.5e-05 s⁻¹	0.00106 ± 0.00017 s⁻¹	
C16G G35C A39G G60U C61U C68U C71A	< 1e-05 s⁻¹	< 1e-05 s⁻¹	< 1e-05 s⁻¹	
A15G G40U C70A	4.48e-05 ± 1.3e-05 s⁻¹	0.000328 ± 8e-05 s⁻¹	0.000773 ± 0.00016 s⁻¹	0.000531 ± 0.00014 s⁻¹
G29A A33G	< 1e-05 s⁻¹	< 1e-05 s⁻¹	< 1e-05 s⁻¹	< 1e-05 s⁻¹
G29U A33U U54G	< 1e-05 s⁻¹			
A33U C58U	< 1e-05 s⁻¹	< 1e-05 s⁻¹		
U30C G43C C68G	7.51e-05 ± 2.2e-05 s⁻¹			
A15U G38U G59U	< 1e-05 s⁻¹			
C34U U54A U69G	0.000126 ± 4.6e-05 s⁻¹	0.000598 ± 0.0002 s⁻¹	0.000128 ± 4.7e-05 s⁻¹	0.000125 ± 3.4e-05 s⁻¹
A14U U57C G66U	< 1e-05 s⁻¹			
A15C U31G U69G	4.96e-05 ± 2e-05 s⁻¹	0.000378 ± 9.2e-05 s⁻¹		

Variant	self-cleavage kobs at 160 uM GlcN6P (glucosamine-6-phosphate [1])	self-cleavage kobs at 640 uM GlcN6P (glucosamine-6-phosphate [2])	self-cleavage kobs at 2500 uM GlcN6P (glucosamine-6-phosphate [3])	self-cleavage kobs at 10000 uM GlcN6P (glucosamine-6-phosphate [4])
U30G U47G	0.000169 ± 4.9e-05 s⁻¹	0.00043 ± 0.00012 s⁻¹	0.00098 ± 0.0002 s⁻¹	
A33G G37U G59C	< 1e-05 s⁻¹		< 1e-05 s⁻¹	
G35U U46C	< 1e-05 s⁻¹	< 1e-05 s⁻¹		
C34U G40C U47A C67G	< 1e-05 s⁻¹			
U31C U54C C67U	8.1e-05 ± 1.6e-05 s⁻¹	0.000176 ± 3.7e-05 s⁻¹	0.000804 ± 0.0002 s⁻¹	
C16A G41A U56G	< 1e-05 s⁻¹	< 1e-05 s⁻¹		
G35A G38A A39G G63C C67U	< 1e-05 s⁻¹			
G35A G43U C50G A64G	< 1e-05 s⁻¹			
C16U G40C U49C G51A	< 1e-05 s⁻¹	< 1e-05 s⁻¹	< 1e-05 s⁻¹	
C16A A33U A36C A39C G43U	< 1e-05 s⁻¹			
A14U G35C U49G	< 1e-05 s⁻¹			
G35A C58U	< 1e-05 s⁻¹		< 1e-05 s⁻¹	< 1e-05 s⁻¹
C16G G44C	< 1e-05 s⁻¹	< 1e-05 s⁻¹		
G35C A36C	< 1e-05 s⁻¹	< 1e-05 s⁻¹		< 1e-05 s⁻¹
G35C A36U	< 1e-05 s⁻¹	< 1e-05 s⁻¹	< 1e-05 s⁻¹	< 1e-05 s⁻¹
G29U G44C	< 1e-05 s⁻¹			
G32C A33U A52G	< 1e-05 s⁻¹	< 1e-05 s⁻¹	< 1e-05 s⁻¹	
G32C A48G G51U	< 1e-05 s⁻¹	< 1e-05 s⁻¹	< 1e-05 s⁻¹	
U31C C58A A64C	< 1e-05 s⁻¹		< 1e-05 s⁻¹	
U30A G40C U49G	< 1e-05 s⁻¹	< 1e-05 s⁻¹	< 1e-05 s⁻¹	
A14U A33C G59A	< 1e-05 s⁻¹	< 1e-05 s⁻¹	< 1e-05 s⁻¹	
C16U A39C A48U	< 1e-05 s⁻¹			
C34G C50G	5.61e-05 ± 2.4e-05 s⁻¹	0.00014 ± 5.7e-05 s⁻¹	9.6e-05 ± 3.6e-05 s⁻¹	
C16U A33G C34A A39G	< 1e-05 s⁻¹	< 1e-05 s⁻¹		
C34A A39C U49A U55C	< 1e-05 s⁻¹			
U31G G35C U46A C70G	< 1e-05 s⁻¹	< 1e-05 s⁻¹	< 1e-05 s⁻¹	
G35C A64G	< 1e-05 s⁻¹	< 1e-05 s⁻¹	< 1e-05 s⁻¹	

Variant	self-cleavage kobs at 160 uM GlcN6P (glucosamine-6-phosphate [1])	self-cleavage kobs at 640 uM GlcN6P (glucosamine-6-phosphate [2])	self-cleavage kobs at 2500 uM GlcN6P (glucosamine-6-phosphate [3])	self-cleavage kobs at 10000 uM GlcN6P (glucosamine-6-phosphate [4])
A33U U54G U56G C61G U69C	9.03e-05 ± 2.7e-05 s⁻¹	0.00035 ± 0.00013 s⁻¹	0.000171 ± 6e-05 s⁻¹	
A14U U45A U46A	0.00056 ± 0.00015 s⁻¹		0.00178 ± 0.00057 s⁻¹	
U31C G32C C70G	0.000701 ± 0.0003 s⁻¹		0.000104 ± 2.4e-05 s⁻¹	
G32U G59C	< 1e-05 s⁻¹	< 1e-05 s⁻¹	< 1e-05 s⁻¹	
U31A A64U	< 1e-05 s⁻¹			4.44e-05 ± 1.1e-05 s⁻¹
C16U A53G U54C	0.000683 ± 0.00013 s⁻¹	0.00193 ± 0.00028 s⁻¹	0.00421 ± 0.00075 s⁻¹	
G32C G35A	< 1e-05 s⁻¹	< 1e-05 s⁻¹	< 1e-05 s⁻¹	< 1e-05 s⁻¹
A15G U55A G62U G63C	< 1e-05 s⁻¹	< 1e-05 s⁻¹		
G35U A53C	< 1e-05 s⁻¹		< 1e-05 s⁻¹	< 1e-05 s⁻¹
C16G G29C A33U A48C	< 1e-05 s⁻¹	< 1e-05 s⁻¹		
U30A U54C C71U	0.000251 ± 5.9e-05 s⁻¹	0.00109 ± 0.00025 s⁻¹	0.00391 ± 0.0014 s⁻¹	
U30G A39U G60U	< 1e-05 s⁻¹		< 1e-05 s⁻¹	
U30C G32U C34G C50G	7.22e-05 ± 2.9e-05 s⁻¹	8.64e-05 ± 3.3e-05 s⁻¹	9.31e-05 ± 2.4e-05 s⁻¹	
A15C U30A	0.000667 ± 0.00019 s⁻¹	0.00307 ± 0.00075 s⁻¹	0.0188 ± 0.0047 s⁻¹	0.0299 ± 0.015 s⁻¹
G29C U31C A33C A36C A53U	< 1e-05 s⁻¹		< 1e-05 s⁻¹	
G35A U49A	< 1e-05 s⁻¹	< 1e-05 s⁻¹		< 1e-05 s⁻¹
A15U G40U A48C	< 1e-05 s⁻¹	< 1e-05 s⁻¹		
G32A A42U	< 1e-05 s⁻¹	< 1e-05 s⁻¹		
A28G U30G C67U C71U	4.89e-05 ± 2e-05 s⁻¹	7.62e-05 ± 1.3e-05 s⁻¹	0.000204 ± 5.3e-05 s⁻¹	
G35A G63A	< 1e-05 s⁻¹			< 1e-05 s⁻¹
U30A G44C	< 1e-05 s⁻¹			
U30C G62A C68G	< 1e-05 s⁻¹	< 1e-05 s⁻¹	< 1e-05 s⁻¹	< 1e-05 s⁻¹
G35C U46A U56A C61U C68U	< 1e-05 s⁻¹		< 1e-05 s⁻¹	
G29C U46G U47A C70G	5.51e-05 ± 2.1e-05 s⁻¹	0.00011 ± 3.9e-05 s⁻¹	6.12e-05 ± 2.5e-05 s⁻¹	
